According to IntAct's records for PubMed 19461891:

B1: Defective in germ line development protein 3 (Caenorhabditis elegans), Q95ZK7-1 (parent)
chain: MGEQSHEKDHDEAHSYNPFVRSAVEYDADTRLQMAENAASARKLFVSSALKDIIVNPENFYHDFQQSAQMAEDANQRRQVSYNTKREAHIHQLKAQGLPLPSNIPMIEINPTRVTLNMEFESQYYSLMTSDNGDHENVASIMAETNTLIQLPDRSVGGTTPDPFAQQVTITGYFGDVDRARMLMRRNCHFTVFMALSKMKMPLHELQAHVRQNPIQNVEMSFVDAPEKNGIVTTYLRITAREKNQHELIEAAKRLNEILFRESPAPENNFTLHFTLSTYYVDQVLGSSSTAQLMPVIERETTTIISYPCYNNRNETRGNIYEIKVVGNIDNVLKARRYIMDLLPISMCFNIKNTDMAEPSRVSDRNIHMIIDESGIILKMTPSVYEPADLLSGEVPLNCASLRSKEFNIKKLYTAYQKVLSKKFDFIAPQPNDYDNSIWHHSLPANFLKNFNMPCRGELSDGSNGRRHRSSSIASSRSKHSYMSKGKQFSESSGGPSRSHTRVSSFSENSSTVPIMQFPTPHFAPPMLTPHHHMLKYVYLQQHQQAQTFLKGAAGLHPGTHIMFPPPIIVDGSFVSALPFADPVVFDGFPYVHGLFPVNEAEQHRNHRESSPSLRSTQEIRKPSRNMGNRPSSSTGSYYPSTTPRQRVYEQVREDDLRSHIGSRRTSVNGDDQNVESMHDQGYERQYPRQHQRLQKDDQQRWKTGSRGDIHSSRTINVHRDVRNSNEYDFHVGNSGPAKRSPSLEQVQLQMTHHLKLKSNDVDLDHEKLYMHESPHNDSDTTVSASGFGNDLMDGDFVQRFLSNANINESGRRPRTVSCFTEKDGQSARYIDSDGAYSVVDHASTHQSRSYDSFRKVGDNGVTKTILEPRARVEKDYGKISLEHKTKYSNEYGDEEKSAENDTSSLGSRQYRIDPMKLIASVRESSEQLPRIHERQFSDVLNEKEKEIADKSIESTVTQDLSLDETSTY
partner: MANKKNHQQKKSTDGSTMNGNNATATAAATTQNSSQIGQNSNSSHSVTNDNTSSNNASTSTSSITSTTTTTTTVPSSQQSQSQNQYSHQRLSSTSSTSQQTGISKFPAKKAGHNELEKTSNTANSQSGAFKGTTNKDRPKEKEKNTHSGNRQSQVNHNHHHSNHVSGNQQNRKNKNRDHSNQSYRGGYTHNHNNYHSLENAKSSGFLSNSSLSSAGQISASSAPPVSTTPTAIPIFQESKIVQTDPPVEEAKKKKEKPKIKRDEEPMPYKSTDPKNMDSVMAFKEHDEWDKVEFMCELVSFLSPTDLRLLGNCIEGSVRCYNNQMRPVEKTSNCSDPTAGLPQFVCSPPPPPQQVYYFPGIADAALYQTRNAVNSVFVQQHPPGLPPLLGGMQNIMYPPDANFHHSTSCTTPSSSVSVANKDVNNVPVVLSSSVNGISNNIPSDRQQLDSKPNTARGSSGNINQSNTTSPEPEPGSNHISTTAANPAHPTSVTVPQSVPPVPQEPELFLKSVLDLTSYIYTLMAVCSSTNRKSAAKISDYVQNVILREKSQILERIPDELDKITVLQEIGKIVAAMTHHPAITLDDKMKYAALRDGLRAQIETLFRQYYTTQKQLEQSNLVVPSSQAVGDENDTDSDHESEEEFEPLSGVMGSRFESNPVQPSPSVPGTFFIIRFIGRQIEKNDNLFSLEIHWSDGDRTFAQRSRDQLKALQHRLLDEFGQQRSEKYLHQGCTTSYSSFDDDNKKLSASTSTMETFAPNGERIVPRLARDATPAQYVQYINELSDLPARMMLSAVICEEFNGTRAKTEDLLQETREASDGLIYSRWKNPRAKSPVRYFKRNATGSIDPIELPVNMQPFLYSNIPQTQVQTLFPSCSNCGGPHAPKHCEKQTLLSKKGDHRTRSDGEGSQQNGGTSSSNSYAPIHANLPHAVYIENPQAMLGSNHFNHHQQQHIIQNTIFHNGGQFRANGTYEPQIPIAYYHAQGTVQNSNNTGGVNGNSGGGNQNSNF

Variants of: B1
Conditions: with gls-1, Q8I4M5-3

Variant | effect of a mutation on the interaction
G327R | disrupting interaction strength
